Where “and” joins values, the source holds several entries; their conditions need not be identical. Equal entries are not always repeated.
What was measured:
[1] = target: T1, Piromyces strain E2 xylose isomerase, native (XI-P), SEQ ID NO: 35 (gene SEQ ID NO: 34) (Piromyces sp. E2, UniProt A0ACD6B9F5); assay: Xylose isomerase kinetics (SDH-coupled, NADH, A340), with and without xylitol; format: biochemical; conditions: about 0 to about 50 mM xylitol; pH 7.5, about 30° C.
T1 construct: soluble whole cell extract; SDH-coupled
Method: (§1) About 20 μg of soluble whole cell extract was incubated in the presence of 100 mM Tris, pH 7.5, 10 mM MgCl2, 0.15 mM NADH (Sigma, St. Louis, Mo.), and about 2 U sorbitol dehydrogenase (Roche) at about 30° C. […] A Beckman DU-800 was utilized with an Enzyme Mechanism software package (Beckman Coulter, Inc.), and the change in the A340 was monitored for 2-3 minutes.
(§2) Approximately 20 μg of soluble whole cell extract from each transformed cell line, prepared using Y-PER plus reagent as described above, was incubated in a solution containing about 100 mM Tris, pH 7.5, 10 mM MgCl ? 2, 0.15 mM NADH (Sigma, St. Louis, Mo.), and 2 U Sorbitol Dehydrogenase (SDH) (Roche, Indianapolis, Ind.) at about 30° C. […] A Beckman DU-800 spectrophotometer was utilized with an Enzyme Mechanism software package (Beckman Coulter, Inc, Brea, Calif.), and the change in the A340 was monitored for 2-3 minutes. […]
(§3) Approximately 20 μg of soluble whole cell extract from each transformed cell line was prepared using Y-PER plus reagent as described above was incubated in a solution containing about 100 mM Tris, pH 7.5, 10 mM MgCl ? […] A Beckman DU-800 spectrophotometer was utilized with an Enzyme Mechanism software package (Beckman Coulter, Inc, Brea, Calif.), and the change in the A340 was monitored for 2-3 minutes.

[2] = target: T2, Ruminococcus flavefaciens strain 17 (Siijpesteijn 1948) xylose isomerase, native (XI-R), SEQ ID NO: 31 (gene SEQ ID NO: 29/30) (Ruminococcus flavefaciens, UniProt Q9S306); assay: as above; format: biochemical; conditions: about 0 to about 50 mM xylitol; pH 7.5, about 30° C.
T2 construct: made in house; host or cells: Saccharomyces cerevisiae BY4742 (p426GPD); soluble whole cell extract, not purified
T2 sequence (Q9S306 1-438): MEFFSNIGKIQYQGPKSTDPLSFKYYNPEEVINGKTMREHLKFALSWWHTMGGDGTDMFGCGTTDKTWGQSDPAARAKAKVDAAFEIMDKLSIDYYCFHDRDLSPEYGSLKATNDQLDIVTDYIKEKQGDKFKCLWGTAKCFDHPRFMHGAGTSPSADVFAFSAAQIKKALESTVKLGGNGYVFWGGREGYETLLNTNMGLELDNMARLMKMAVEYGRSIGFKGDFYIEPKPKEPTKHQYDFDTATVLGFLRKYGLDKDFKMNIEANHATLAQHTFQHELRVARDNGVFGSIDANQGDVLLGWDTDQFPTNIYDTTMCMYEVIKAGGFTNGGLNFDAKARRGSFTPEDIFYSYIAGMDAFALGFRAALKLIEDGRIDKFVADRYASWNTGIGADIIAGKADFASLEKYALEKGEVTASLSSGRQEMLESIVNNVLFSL
Method: as §1, §2, §3

[3] = test system: Ruminococcus flavefaciens FD-1 (Ruminococcus_FD1) xylose isomerase, SEQ ID NO: 110; assay: Kinetics of additional xylose isomerase candidates (Km and specific activity); format: biochemical; conditions: xylose 40 to 500 nM; crude S. cerevisiae extract
From the text: The results are show in FIG. 25.

[4] = target: T3, Ruminococcus flavefaciens xylose isomerase, codon-optimized gene variant (XI-R-COOP), gene SEQ ID NO: 33 (Ruminococcus flavefaciens, UniProt Q9S306); assay: Xylose isomerase kinetics (SDH-coupled, NADH, A340), with and without xylitol; format: biochemical; conditions: xylose about 40 to about 500 mM; pH 7.5, about 30° C.
T3 sequence (Q9S306 1-438): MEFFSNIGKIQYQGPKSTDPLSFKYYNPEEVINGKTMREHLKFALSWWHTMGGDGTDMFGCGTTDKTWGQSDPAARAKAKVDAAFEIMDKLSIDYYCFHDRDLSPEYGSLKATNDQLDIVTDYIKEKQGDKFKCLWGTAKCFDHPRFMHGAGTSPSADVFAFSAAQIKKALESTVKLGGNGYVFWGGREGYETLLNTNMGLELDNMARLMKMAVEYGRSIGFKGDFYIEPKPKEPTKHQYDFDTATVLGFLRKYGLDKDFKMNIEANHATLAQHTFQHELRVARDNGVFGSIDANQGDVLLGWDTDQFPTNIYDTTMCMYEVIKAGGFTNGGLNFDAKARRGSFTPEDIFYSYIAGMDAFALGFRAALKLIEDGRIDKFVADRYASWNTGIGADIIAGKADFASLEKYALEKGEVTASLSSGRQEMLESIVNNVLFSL
Method: An additional variant of the native R. flavefaciens xylose isomerase gene (XI-R-COOP) was prepared in which all of the codons were optimized for expression in Saccharomyces cerevisiae. This variant gene was synthesized by IDT DNA Inc. and the sequence is set forth below as SEQ ID NO: 33.

xylose [5] = assay: Industrial yeast strain BF903 with Ruminococcus xylose isomerase: aerobic growth and xylose consumption on YP-xylose; format: cell-based, Saccharomyces cerevisiae; conditions: commercial yeast strain BF903, YP-xylose, 30° C., 7 days, FIG. 11
Method: A commercially available industrial diploid strain of Saccharomyces cerevisiae (strain BF903; “Stillspirits” triple distilled yeast, Brewcraft, Albany, New Zealand; available at Hydrobrew, Oceanside, Calif.) was obtained and was made competent for transformation using known yeast cell transformation procedures. […] Transformed yeast containing each construct were grown overnight aerobically in a 15 ml culture tube on YPD media containing 2% glucose. After about 24 hours, about 25 ml of YP media containing 2% glucose and 100 μg/ml G418 was seeded with the cells at an initial OD600 of 0.5 in a 250 ml Erlenmeyer flask and grown aerobically at 30° C. The cultures were then passaged once every 7 days into fresh media, also at an initial OD600 of 0.5.
Measurements were taken of the cell optical density (OD600) to assess cell density and plated onto YPD with 100 μg/ml G418 to ensure that the plasmid was stable. […] The strains were then grown overnight in YPD (with 100 μg/ml G418) and used to inoculate about 50 ml YP-xylose (with 100 μg/ml G418) into disposable 250 ml Erlenmeyer flasks with vented caps at an initial OD600 of about 1. The cultures were allowed to grow aerobically at 30° C. at 200 rpm for 7 days.

[6] = test system: xylose isomerase activity; assay: Heterologous xylose isomerase expression in engineered yeast (active yes/no); conditions: xylose isomerase of the donor organism expressed in engineered yeast (S. cerevisiae)
xylose [7] = assay: Industrial yeast strain BF903 with Ruminococcus xylose isomerase: sealed serum bottles on YP plus xylose (xylose utilization, ethanol, cell growth); format: cell-based, Saccharomyces cerevisiae; conditions: FIG. 12
Method: The serum bottles were sealed with a butyl rubber stopper to prevent air exchange. As a result, the cultures became anaerobic once the available oxygen in the serum bottle was utilized. In general, anaerobiosis (e.g., the onset of anaerobic conditions) occurred a few hours after the culture was inoculated. Xylose utilization, ethanol production and cell growth were measured every twenty four hours.

xylose [8] = assay: In vivo evaluation of xylose isomerase constructs in C5 strain: xylose fermentation, aerobic then anaerobic (ethanol, xylose, glucose, OD600, dry cell weight); format: cell-based, Saccharomyces cerevisiae; conditions: final sample at 372 hours
From the text: The engineered strain was designed to include the following genetic modifications: the native Pho13 gene (alkaline phosphatase specific for p-nitrophenyl phosphate) was disrupted by inserting a construct containing the native TLK1 gene (Transketolase-1); the native aldose reductase gene (Gre3) was disrupted by inserting a construct containing the native high-affinity glucose transporter-7 gene (HXT7); the native glucose-repressible alcohol dehydrogenase II gene (adh2) was disrupted by inserting a construct containing the native xylulokinase gene (XYLK); and the native orotidine-5′ phosphate decarboxylase gene (ura3) was disrupted by inserting a construct containing the native transaldolase 1 gene (TAL1). The resulting strain had the following genotype: pho13::TKL1, gre3::HXT7, adh-2::XYLK, ura3::TAL1.
The C5 strain was transformed using standard protocols with either p426GPD (as a control) or the chimeric variants XI-R, XI-Rp5, XI-Rp10, or XI-Rp15. The transformed cells were grown on SC-glucose minus uracil initially and then passaged onto SC-xylose minus uracil. Cultures of each of the above constructs were made in SC-xylose minus uracil—and grown for one week. The cultures were grown aerobically at 30° C. with 250 rpm agitation, 1 vvm sparge of process air, 21% O2. The pH was controlled at about 5.0 with 1N NaOH. […] At 24 hours elapsed fermentation time the fermentation was switched to anaerobic conditions. […] Oxygen was purged with 100% N2 sparge at 1 vvm until percent O2 was below 1%. Aeration was then set at 0.25 vvm 100% N2.
The final sample also measured biomass by dry cell weight.

T1 sequence (A0ACD6B9F5 1-437): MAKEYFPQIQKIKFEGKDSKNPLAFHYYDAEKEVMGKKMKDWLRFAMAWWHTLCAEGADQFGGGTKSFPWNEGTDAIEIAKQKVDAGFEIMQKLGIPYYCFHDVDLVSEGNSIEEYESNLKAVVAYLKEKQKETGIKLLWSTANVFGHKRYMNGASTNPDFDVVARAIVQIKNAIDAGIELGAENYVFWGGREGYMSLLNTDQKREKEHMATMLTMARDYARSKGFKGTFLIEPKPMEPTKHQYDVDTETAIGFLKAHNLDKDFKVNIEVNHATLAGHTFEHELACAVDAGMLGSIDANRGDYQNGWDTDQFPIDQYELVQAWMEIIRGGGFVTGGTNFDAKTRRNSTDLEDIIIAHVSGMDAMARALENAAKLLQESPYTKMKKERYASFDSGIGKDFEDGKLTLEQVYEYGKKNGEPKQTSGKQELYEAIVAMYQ

OC[C@@H](O)[C@H](O)[C@@H](O)CO [xylitol]
Ki [1]: 4.79 mM
Ki [2]: 43.6 mM

OC1OC[C@@H](O)[C@H](O)[C@H]1O (some centres unmarked) [xylose]
Km [3]: 71.9 mM
Km [4]: 100 mM

B1: Ruminococcus flavefaciens: native xylose isomerase from Ruminococcus flavefaciens strain 17 (SEQ ID NO: 31) (protein, listed as Ruminococcus flavefaciens)
chain: MEFFSNIGKIQYQGPKSTDPLSFKYYNPEEVINGKTMREHLKFALSWWHTMGGDGTDMFGCGTTDKTWGQSDPAARAKAKVDAAFEIMDKLSIDYYCFHDRDLSPEYGSLKATNDQLDIVTDYIKEKQGDKFKCLWGTAKCFDHPRFMHGAGTSPSADVFAFSAAQIKKALESTVKLGGNGYVFWGGREGYETLLNTNMGLELDNMARLMKMAVEYGRSIGFKGDFYIEPKPKEPTKHQYDFDTATVLGFLRKYGLDKDFKMNIEANHATLAQHTFQHELRVARDNGVFGSIDANQGDVLLGWDTDQFPTNIYDTTMCMYEVIKAGGFTNGGLNFDAKARRGSFTPEDIFYSYIAGMDAFALGFRAALKLIEDGRIDKFVADRYASWNTGIGADIIAGKADFASLEKYALEKGEVTASLSSGRQEMLESIVNNVLFSL
xylose consumption versus vector control (xylose [5]): more efficient at consuming xylose
Active? (yes/no) [6]: Yes
cell density versus vector only control (xylose [7]): grew to a higher cell density
ethanol production from xylose versus vector only control (xylose [7]): produced more ethanol
Glucose (xylose [8]): 0 g/L
Ethanol (xylose [8]; listed as XI-R): 15.65 g/L and 15.5 g/L
Xylose (xylose [8]; listed as XI-R): 3.14 g/L and 3.85 g/L
